Source: patent US20190085311

B1: D160S/K196S + N107W + E106G (protein)
chain: QAKPQIPKDKSKVAGYIEIPDADIKEPVYPGPATPEQLNRGVSFAEGWESLDDQNISIAGHTFIDRPNYQFTNLKAAKKGSMVYFKVGNETRKYKMTSIRSVKPTDVGVLDEQKGKDKQLTLITCDDYNEKTGVWESRKIFVATEVK
B2: D160S/K196S + N107W (protein)
chain: QAKPQIPKDKSKVAGYIEIPDADIKEPVYPGPATPEQLNRGVSFAEEWESLDDQNISIAGHTFIDRPNYQFTNLKAAKKGSMVYFKVGNETRKYKMTSIRSVKPTDVGVLDEQKGKDKQLTLITCDDYNEKTGVWESRKIFVATEVK
B3: D160S/K196S + E106G (protein)
chain: QAKPQIPKDKSKVAGYIEIPDADIKEPVYPGPATPEQLNRGVSFAEGNESLDDQNISIAGHTFIDRPNYQFTNLKAAKKGSMVYFKVGNETRKYKMTSIRSVKPTDVGVLDEQKGKDKQLTLITCDDYNEKTGVWESRKIFVATEVK
B4: D160S/K196S + A61E (protein)
chain: QEKPQIPKDKSKVAGYIEIPDADIKEPVYPGPATPEQLNRGVSFAEENESLDDQNISIAGHTFIDRPNYQFTNLKAAKKGSMVYFKVGNETRKYKMTSIRSVKPTDVGVLDEQKGKDKQLTLITCDDYNEKTGVWESRKIFVATEVK
B5: D160S/K196S + G167E (protein)
chain: QAKPQIPKDKSKVAGYIEIPDADIKEPVYPGPATPEQLNRGVSFAEENESLDDQNISIAGHTFIDRPNYQFTNLKAAKKGSMVYFKVGNETRKYKMTSIRSVKPTDVEVLDEQKGKDKQLTLITCDDYNEKTGVWESRKIFVATEVK
B6: D160S/K196S + F144L + G167E (protein)
chain: QAKPQIPKDKSKVAGYIEIPDADIKEPVYPGPATPEQLNRGVSFAEENESLDDQNISIAGHTFIDRPNYQFTNLKAAKKGSMVYLKVGNETRKYKMTSIRSVKPTDVEVLDEQKGKDKQLTLITCDDYNEKTGVWESRKIFVATEVK
B7: D160S/K196S + N107W + G167E (protein)
chain: QAKPQIPKDKSKVAGYIEIPDADIKEPVYPGPATPEQLNRGVSFAEEWESLDDQNISIAGHTFIDRPNYQFTNLKAAKKGSMVYFKVGNETRKYKMTSIRSVKPTDVEVLDEQKGKDKQLTLITCDDYNEKTGVWESRKIFVATEVK
B8: D160S/K196S + F144L (protein)
chain: QAKPQIPKDKSKVAGYIEIPDADIKEPVYPGPATPEQLNRGVSFAEENESLDDQNISIAGHTFIDRPNYQFTNLKAAKKGSMVYLKVGNETRKYKMTSIRSVKPTDVGVLDEQKGKDKQLTLITCDDYNEKTGVWESRKIFVATEVK
B9: D160S/K196S + A61T (protein)
chain: QTKPQIPKDKSKVAGYIEIPDADIKEPVYPGPATPEQLNRGVSFAEENESLDDQNISIAGHTFIDRPNYQFTNLKAAKKGSMVYFKVGNETRKYKMTSIRSVKPTDVGVLDEQKGKDKQLTLITCDDYNEKTGVWESRKIFVATEVK
B10: D160S/K196S + N107W + F144L (protein)
chain: QAKPQIPKDKSKVAGYIEIPDADIKEPVYPGPATPEQLNRGVSFAEEWESLDDQNISIAGHTFIDRPNYQFTNLKAAKKGSMVYLKVGNETRKYKMTSIRSVKPTDVGVLDEQKGKDKQLTLITCDDYNEKTGVWESRKIFVATEVK
B11: D160S/K196S + N107W + F144L + G167E (protein)
chain: QAKPQIPKDKSKVAGYIEIPDADIKEPVYPGPATPEQLNRGVSFAEEWESLDDQNISIAGHTFIDRPNYQFTNLKAAKKGSMVYLKVGNETRKYKMTSIRSVKPTDVEVLDEQKGKDKQLTLITCDDYNEKTGVWESRKIFVATEVK
B12: Reference 2: P94R/D160N/D165A/G167E/K190E/K196T from U.S. Pat. No. 9,267,127 (SEQ ID NO: 52) (protein)
chain: MQAKPQIPKDKSKVAGYIEIPDADIKEPVYPGPATREQLNRGVSFAEENESLDDQNISIAGHTFIDRPNYQFTNLKAAKKGSMVYFKVGNETRKYKMTSIRNVKPTAVEVLDEQKGKDKQLTLITCDDYNEETGVWEKRKIFVATEVK

The proteins below were run against glucose dehydrogenase containing the LPETG motif.

Point of comparison: B2, “relative apparent “Km” for LPXTG” value 121%. Against it:
- B1 — lower, 107%
- B3 — the same, 121%
- B4 — lower, 100%
- B5 — higher, 131%
- B6 — higher, 166%
- B7 — higher, 166%
- B8 — lower, 100%
- B9 — lower, 97%
- B10 — higher, 134%
- B11 — higher, 197%

In the case of B12, the “relative apparent “Km” for LPXTG” value is reported as “lower”.
